What was measured:
Assay in all cases: SEC
[1] = target: SARS-CoV-2 Nsp15 A93S (SARS-CoV-2)
[2] = target: SARS-CoV-2 Nsp15 D133Y (SARS-CoV-2)
[3] = target: SARS-CoV-2 Nsp15 G18E (SARS-CoV-2)
[4] = target: SARS-CoV-2 Nsp15 G18R (SARS-CoV-2)
[5] = target: SARS-CoV-2 Nsp15 H235Y (SARS-CoV-2)
[6] = target: SARS-CoV-2 Nsp15 K13N (SARS-CoV-2)
[7] = target: SARS-CoV-2 Nsp15 K13R (SARS-CoV-2)
[8] = target: SARS-CoV-2 Nsp15 K290N (SARS-CoV-2)
[9] = target: SARS-CoV-2 Nsp15 L163F (SARS-CoV-2)
[10] = target: SARS-CoV-2 Nsp15 P206S (SARS-CoV-2)
[11] = target: SARS-CoV-2 Nsp15 R207S (SARS-CoV-2)
[12] = target: SARS-CoV-2 Nsp15 T34I (SARS-CoV-2)
[13] = target: SARS-CoV-2 Nsp15 T113I (SARS-CoV-2)
[14] = target: SARS-CoV-2 Nsp15 T115A (SARS-CoV-2)
[15] = target: SARS-CoV-2 Nsp15 V128F (SARS-CoV-2)
[16] = target: SARS-CoV-2 Nsp15 V321M (SARS-CoV-2)
[17] = target: SARS-CoV-2 Nsp15 W333C (SARS-CoV-2)

SARS-CoV-2 Nsp15 A93S (enzyme) gave a hexamer/monomer ratio [1] of 0.49.

SARS-CoV-2 Nsp15 D133Y (enzyme) showed a hexamer/monomer ratio [2] of 0.48.

SARS-CoV-2 Nsp15 G18E (enzyme) was tested, and the hexamer/monomer ratio [3] was 0.56.

For SARS-CoV-2 Nsp15 G18R (enzyme), the hexamer/monomer ratio [4] was 0.88.

Work on SARS-CoV-2 Nsp15 H235Y (enzyme) yielded a hexamer/monomer ratio [5] of 1.61.

SARS-CoV-2 Nsp15 K13N (enzyme) was tested, and the hexamer/monomer ratio [6] was 0.63.

SARS-CoV-2 Nsp15 K13R (enzyme) was tested, and the hexamer/monomer ratio [7] was 1.18.

Work on SARS-CoV-2 Nsp15 K290N (enzyme) yielded a hexamer/monomer ratio [8] of 2.12.

SARS-CoV-2 Nsp15 L163F (enzyme) gave a hexamer/monomer ratio [9] of 0.23.

Substance SARS-CoV-2 Nsp15 P206S (enzyme) has a hexamer/monomer ratio [10] of 2.49.

SARS-CoV-2 Nsp15 R207S (enzyme) was tested, and the hexamer/monomer ratio [11] was 0.14.

In the case of SARS-CoV-2 Nsp15 T34I (enzyme), the hexamer/monomer ratio [12] is reported as 1.01.

SARS-CoV-2 Nsp15 T113I (enzyme) gave a hexamer/monomer ratio [13] of 1.79.

SARS-CoV-2 Nsp15 T115A (enzyme) was tested, and the hexamer/monomer ratio [14] was 0.55.

Substance SARS-CoV-2 Nsp15 V128F (enzyme) has a hexamer/monomer ratio [15] of 0.5.

SARS-CoV-2 Nsp15 V321M (enzyme) was tested, and the hexamer/monomer ratio [16] was 0.65.

SARS-CoV-2 Nsp15 W333C (enzyme) showed a hexamer/monomer ratio [17] of 0.77.
